Entries after “also recorded” stand apart in the source; their conditions may differ.
Assays:
HUVECs and U937 cells = assay: Heterotypic aggregation/adhesion between IFN-γ-treated HUVECs and U937 cells; format: cell-based, human
Protocol: HUVECs (1−5×10^4 cells/ml) were seeded onto a 12-well cell culture plate. After one day, the medium was exchanged with a low-serum medium containing 0.5% FBS, and the cells were pretreated with interferon-gamma (IFN-γ; Calbiochem) in a final concentration 10 ng/ml for 24 hrs. Then, the pretreated HUVECs were co-cultured with U937 cells (2×10^6 cells/ml, 500 μl) at 37° C. for 4 hrs. The co-culture was washed with phosphate buffer three or four times, and the remaining cells were fixed with 4% paraformaldehyde and microscopically observed.
HUVECs were transfected with an expression vector for Bst2, treated with or without IFN-γ and then transfected with Bst2 siRNA. These cells were assessed for U937 cell adhesion.
HUVECs were cultured in 12-well plates with or without transfection of Bst2 siRNA or control siRNA for 6 hr, then treated with or without IFNγ for 24 hr. In some experiments, cells were treated with crude media containing Bst2 decoy or mouse anti-human ICAM1 antibodies. After a wash with PBS (phosphate buffered saline), U937 cells were resuspended in serum free medium at 2×10^6 cells/ml. Assays were initiated by the addition of 200 ul U937 cells to HUVEC for a final volume of 1 ml. After 4 hr at 37° C., unbound U937 cells were removed by washing plates three times with PBS. Bound cells were fixed by the addition of 4% paraformaldehyde in PBS, and the bound cells were counted under microscopy in different fields. All statistical analyses were performed in Excel and statistical significance were evaluated with Student's t test. In some experiments, RNA samples were obtained from HUVECs after treatment with IFNγ and/or siRNAs, and real-time polymerase chain reaction (RT-PCR) analyses were performed.

[1] = system: OVA-induced atopic dermatitis; assay: OVA-induced atopic dermatitis model in mice; format: in vivo, BALB/c mice
Protocol: An experimental model of atopic dermatitis based on immunity against ovalbumin (OVA) was utilized to test Bst2 decoy for efficacy in atopic dermatitis. BALB/c mice were immunized at the beginning of weeks 1, 2, and 3 with intraperitoneal injections of OVA/ALUM. During week 4, an OVA-soaked patch was applied to the shaved backs of the animals. The patches were removed and 5 daily doses of Bst2 decoy was administered to the animal by intravenous injections of 10 mg/kg during week 5. OVA-soaked patches were applied again to the animals over week 6 and the animals were sacrificed for evaluation at the beginning of week 7 (FIG. 43).
Serum was prepared from blood sample collected from the sacrificed animals. OVA-specific IgE levels were determined by ELISA assays in which OVA was coated on the plate, OVA-specific immunoglobulin present in the serum samples allowed to blind, and IgE levels ascertained utilizing anti-IgE specific antibodies.

B1: Bst2 decoy: soluble Bst2 protein fragment having the amino acid sequence of SEQ ID NO:1; extracellular region of human Bst2, six-histidine tag (protein)
chain: NSEACRDGLRAVMECRNVTHLLQQELTEAQKGFQDVEAQAATCNHTVMALMASLDAEKAQGQKKVEELEGEITTLNHKLQDASAEVERLRRENQVLSVRIADKKYYPSSQDHHHHHH
HUVECs and U937 cells; Bst2 decoy-containing medium, IFN-γ 10 ng/ml 24 hrs, co-culture 4 hrs
  binding of U937 cells to IFNγ-treated HUVECs: decreased binding
HUVECs and U937 cells; IFNγ-treated HUVECs and U937 cells
  dose dependence of effect in heterotypic cell aggregation/adhesion assay: dependent on concentrations; also recorded: dose-dependent response
[1]; 10 mg/kg intravenous, 5 daily doses during week 5, end of week 6
  formation of lesions after OVA-soaked patch: little if any formation of lesions
[1]; ELISA
  serum OVA-specific IgE levels: substantial reduction
[1]; to a level similar to the negative control group
  inflammation in H&E stained skin sections: marked decrease in inflammation

From patent publication US8329186B2, “Treatment of inflammation using BST2 inhibitor” (Isu Abxis Co., Ltd, priority 2004, dated 2012)
